Source: patent publication US20210130436A1 (published 2021)

Tests used:
[1] = molecular target: T1, human PD-L1, expressed on cells (human, UniProt Q9NZQ7 19-290); test: flow cytometry of live CD45- cells of digested hPD-L1 MC38 tumors after treatment in vivo, detection of the bound Fc protein (FIG. 15)
T1 construct: On CHO/PD-L1, K562/OKT3/PD-L1 and CHO/OKT3/PD-L1 aAPC, huPD-L1-transduced MC38 cells, or primary human monocytes; also called huPD-L1; hPD-L1

TIGIT [2] = molecular target: T2, TIGIT (Homo sapiens (Human), UniProt Q495A1 23-244); test: flow cytometry, TIGIT-transfected Expi293 cells
T2 construct: Expressed on transfected Expi293 cells; also called TIGIT tfxn
T2 sequence: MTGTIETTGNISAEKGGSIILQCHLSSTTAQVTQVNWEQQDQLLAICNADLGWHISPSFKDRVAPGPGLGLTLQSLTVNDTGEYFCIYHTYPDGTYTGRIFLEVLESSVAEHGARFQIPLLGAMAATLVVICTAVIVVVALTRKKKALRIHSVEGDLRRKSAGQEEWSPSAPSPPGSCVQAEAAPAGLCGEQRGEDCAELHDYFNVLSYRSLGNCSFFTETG

CD226 [3] = molecular target: T3, CD226 (Homo sapiens (Human), UniProt Q15762 19-336); test: flow cytometry, CD226-transfected Expi293 cells
T3 construct: Expressed on transfected cells
T3 sequence: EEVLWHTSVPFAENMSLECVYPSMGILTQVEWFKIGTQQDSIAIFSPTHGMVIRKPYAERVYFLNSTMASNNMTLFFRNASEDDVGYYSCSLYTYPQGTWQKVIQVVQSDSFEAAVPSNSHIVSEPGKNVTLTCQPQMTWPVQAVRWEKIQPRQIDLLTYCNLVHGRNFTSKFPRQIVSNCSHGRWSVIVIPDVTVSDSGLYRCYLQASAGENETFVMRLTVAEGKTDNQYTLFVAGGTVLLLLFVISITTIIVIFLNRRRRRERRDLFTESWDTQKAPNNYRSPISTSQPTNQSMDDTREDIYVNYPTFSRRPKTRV

CD226 [4] = molecular target: T4, CD226 (Homo sapiens (Human), UniProt Q15762 19-336); test: flow cytometry on CD226-transfected Expi293 cells; reference itself
T4 construct: also called CD226 tfxn
T4 sequence: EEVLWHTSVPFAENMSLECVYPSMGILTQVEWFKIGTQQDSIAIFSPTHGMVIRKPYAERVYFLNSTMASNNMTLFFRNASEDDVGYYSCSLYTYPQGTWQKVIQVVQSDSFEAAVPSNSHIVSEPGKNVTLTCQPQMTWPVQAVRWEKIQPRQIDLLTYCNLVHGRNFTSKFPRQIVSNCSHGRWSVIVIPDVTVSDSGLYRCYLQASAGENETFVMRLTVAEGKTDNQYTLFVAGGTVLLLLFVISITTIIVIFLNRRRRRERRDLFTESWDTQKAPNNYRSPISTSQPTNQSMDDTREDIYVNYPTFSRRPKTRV

CD96 [5] = molecular target: T5, CD96 (UniProt P40200 22-585, limits assumed); test: flow cytometry on CD96-expressing cells; reference itself
T5 construct: whole, on cells
T5 sequence (looked up): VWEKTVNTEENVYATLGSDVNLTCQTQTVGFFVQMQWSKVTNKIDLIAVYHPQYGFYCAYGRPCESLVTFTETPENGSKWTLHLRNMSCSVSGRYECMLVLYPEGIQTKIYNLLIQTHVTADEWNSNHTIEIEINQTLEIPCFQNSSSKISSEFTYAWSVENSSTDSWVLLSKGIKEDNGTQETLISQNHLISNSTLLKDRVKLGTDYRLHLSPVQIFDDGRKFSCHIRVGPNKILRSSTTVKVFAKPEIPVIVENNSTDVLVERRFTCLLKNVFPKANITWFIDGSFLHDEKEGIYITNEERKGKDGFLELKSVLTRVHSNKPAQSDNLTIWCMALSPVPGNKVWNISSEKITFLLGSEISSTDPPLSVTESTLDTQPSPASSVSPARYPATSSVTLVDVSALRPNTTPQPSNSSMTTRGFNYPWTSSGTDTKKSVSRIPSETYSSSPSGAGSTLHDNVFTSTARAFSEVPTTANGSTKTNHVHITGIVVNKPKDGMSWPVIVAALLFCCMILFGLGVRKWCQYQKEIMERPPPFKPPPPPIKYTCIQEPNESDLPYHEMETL

TIGIT [6] = molecular target: T6, TIGIT (Homo sapiens (Human), UniProt Q495A1 23-244); test: flow cytometry on TIGIT-transfected Expi293 cells; reference itself
T6 construct: also called TIGIT tfxn
T6 sequence: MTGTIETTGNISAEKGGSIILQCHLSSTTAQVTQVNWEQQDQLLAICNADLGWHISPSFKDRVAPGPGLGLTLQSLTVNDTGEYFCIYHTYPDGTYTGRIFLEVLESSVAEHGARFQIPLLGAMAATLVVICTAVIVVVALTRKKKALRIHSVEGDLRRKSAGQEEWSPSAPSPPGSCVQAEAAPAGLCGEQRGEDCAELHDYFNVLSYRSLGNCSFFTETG

TIGIT [7] = molecular target: T6, TIGIT; test: flow cytometry on TIGIT-transfected Expi293 cells
CD96 [8] = molecular target: T5, CD96; test: flow cytometry on CD96-expressing cells
CD226 [9] = molecular target: T4, CD226; test: flow cytometry on CD226-transfected Expi293 cells
TIGIT [10] = molecular target: T7, TIGIT (UniProt Q495A1 22-244); test: flow cytometry, MFI ratio to wildtype CD155 ECD-Fc, TIGIT cells
T7 construct: whole, on cells
T7 sequence (looked up): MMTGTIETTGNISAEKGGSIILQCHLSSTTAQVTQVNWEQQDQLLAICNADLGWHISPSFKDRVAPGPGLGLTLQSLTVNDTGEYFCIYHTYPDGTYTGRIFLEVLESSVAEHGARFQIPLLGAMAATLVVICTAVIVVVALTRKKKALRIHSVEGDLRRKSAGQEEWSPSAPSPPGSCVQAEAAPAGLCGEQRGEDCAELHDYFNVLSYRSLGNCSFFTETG

TIGIT [11] = molecular target: T7, TIGIT; test: flow cytometry on cells expressing TIGIT, Fc fusion at 100 nM
TIGIT [12] = molecular target: T8, TIGIT (UniProt Q495A1 22-244); test: flow cytometry, Fc fusion at 25 nM on cells expressing TIGIT
T8 construct: whole, on cells; Expressed on transfected cells
T8 sequence (looked up): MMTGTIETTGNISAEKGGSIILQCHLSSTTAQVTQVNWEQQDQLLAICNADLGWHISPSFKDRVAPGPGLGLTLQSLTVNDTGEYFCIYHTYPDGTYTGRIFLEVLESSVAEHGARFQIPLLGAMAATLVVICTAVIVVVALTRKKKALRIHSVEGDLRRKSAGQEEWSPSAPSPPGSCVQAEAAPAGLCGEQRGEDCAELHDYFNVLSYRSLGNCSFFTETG

T1 sequence (Q9NZQ7 19-290): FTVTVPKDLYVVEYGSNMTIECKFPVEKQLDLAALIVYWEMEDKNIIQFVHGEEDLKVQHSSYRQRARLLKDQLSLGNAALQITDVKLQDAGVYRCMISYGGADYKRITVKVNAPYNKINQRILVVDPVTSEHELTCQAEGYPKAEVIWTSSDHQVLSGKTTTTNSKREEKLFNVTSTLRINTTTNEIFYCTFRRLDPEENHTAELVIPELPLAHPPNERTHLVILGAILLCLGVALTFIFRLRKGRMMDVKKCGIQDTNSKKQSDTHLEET

B1: CD80 variant E35D/M47L (SEQ ID NO: 208)-Fc (inert) (Fc fusion)
chain: VIHVTKEVKEVATLSCGHNVSVEELAQTRIYWQKDKKMVLTMMSGDLNIWPEYKNRTIFDITNNLSIVILALRPSDEGTYECVVLKYEKDAFKREHLAEVTLSVKADGSGGGGSEPKSSDKTHTCPPCPAPEAEGAPSVFLFPPKPKDTLMISRTPEVTCVVVDVSHEDPEVKFNWYVDGVEVHNAKTKPREEQYNSTYRVVSVLTVLHQDWLNGKEYKCKVSNKALPAPIEKTISKAKGQPREPQVYTLPPSREEMTKNQVSLTCLVKGFYPSDIAVEWESNGQPENNYKTTPPVLDSDGSFFLYSKLTVDKSRWQQGNVFSCSVMHEALHNHYTQKSLSLSPG
notes: also called E35D/M47L CD80-IgV-Fc; E35D/M47L CD80-Fc
B1: binds [1].

B2: variant CD112 IgV-Fc S118Y (Fc fusion)
chain: QDVRVQVLPEVRGQLGGTVELPCHLLPPVPGLYISLVTWQRPDAPANHQNVAAFHPKMGPSFPSPKPGSERLSFVSAKQSTGQDTEAELQDATLALHGLTVEDEGNYTCEFATFPKGYVRGMTWLRV
notes: IgV-Fc fusion; not shown: linker and Fc
B2 gave an MFI (TIGIT [2]) of 2920 MFI and an MFI (CD226 [3]) of 2000 MFI.

B3: wild-type CD155 IgV-Fc (Fc fusion, not shown: a dimerising Fc or GST)
chain: WPPPGTGDVVVQAPTQVPGFLGDSVTLPCYLQVPNMEVTHVSQLTWARHGESGSMAVFHQTQGPSYSESKRLEFVAARLGAELRNASLRMFGLRVEDEGNYTCLFVTFPQGSRSVDIWLRVL
Binder B3 has an MFI parental ratio (CD226 [4]) of 1 fold, an MFI parental ratio (CD96 [5]) of 1 fold and an MFI parental ratio (TIGIT [6]) of 1 fold. It also gave an MFI (TIGIT [7]) of 2720 MFI, an MFI (CD96 [8]) of 3080 MFI and an MFI (CD226 [9]) of 3720 MFI.

B4: CD155 IgV Fc (Fc fusion, not shown: a dimerising Fc or GST)
chain: WPPPGTGDVVVQAPTQVPGFLGDSVTLPCYLQVPNMEVTHVSQLTWARHGESGSMAVFHQTQGPSYSESKRLEFVAARLGAELRNASLRMFGLRVEDEGNYTCLFVTFPQGSRSVDIWLRVL
With B4 the “Fold ↑ to WT ECD” value (TIGIT [10]) was 0.01 fold and the “MFI at 100 nM” value (TIGIT [11]) was 4690 MFI.

B5: variant CD155 IgV-Fc V9L/V11M/P18S/N35S/S54G/Q62K/L79P/L104M/T107M/V115M (Fc fusion, not shown: a dimerising Fc or GST)
chain: WPPPGTGDLVMQAPTQVSGFLGDSVTLPCYLQVPSMEVTHVSQLTWARHGESGGMAVFHQTKGPSYSESKRLEFVAARPGAELRNASLRMFGLRVEDEGNYTCMFVMFPQGSRSMDIWLRVL
notes: also called V9L/V11M/P18S/N355/S54G/Q62K/L79P/L104M/T107M/V115M
B5 was tested, and the “MFI at 25 nM” value (TIGIT [12]) was 3000 MFI.
